{"source": "paper PMC6344896", "about": "“HuR biological function involves RRM3-mediated dimerization and RNA binding by all three RRMs”", "key": {"HuR RRM3 [1]": {"biological_target": "T1, HuR RRM3 (human, UniProt Q15717 243-326)", "T1 sequence (Q15717 243-326)": "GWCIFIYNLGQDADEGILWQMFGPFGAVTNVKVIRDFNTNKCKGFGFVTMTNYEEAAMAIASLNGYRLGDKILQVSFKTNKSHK", "assay": "ITC; 400 uM RNA into 20 uM RRM3; ITC: 50 mM sodium phosphate pH 7.0, 200 mM NaCl, 2 mM beta-mercaptoethanol, 298 K; NMR: 20 mM sodium phosphate pH 7.0, 200 mM NaCl, 5 mM DTT, 1 mM EDTA, 298 K", "conditions": "protein: recombinant; tags: untagged (His6-GST cleaved with TEV)"}, "HuR RRM3 [2]": {"biological_target": "T1, HuR RRM3", "assay": "ITC; n=0.8; ITC: 50 mM sodium phosphate pH 7.0, 200 mM NaCl, 2 mM beta-mercaptoethanol, 298 K; NMR: 20 mM sodium phosphate pH 7.0, 200 mM NaCl, 5 mM DTT, 1 mM EDTA, 298 K", "conditions": "protein: recombinant; tags: untagged (His6-GST cleaved with TEV)"}, "HuR RRM3 [3]": {"biological_target": "T1, HuR RRM3", "assay": "ITC; n=1.1; ITC: 50 mM sodium phosphate pH 7.0, 200 mM NaCl, 2 mM beta-mercaptoethanol, 298 K; NMR: 20 mM sodium phosphate pH 7.0, 200 mM NaCl, 5 mM DTT, 1 mM EDTA, 298 K", "conditions": "protein: recombinant; tags: untagged (His6-GST cleaved with TEV)"}, "HuR RRM3 [4]": {"biological_target": "T1, HuR RRM3", "assay": "ITC; ITC: 50 mM sodium phosphate pH 7.0, 200 mM NaCl, 2 mM beta-mercaptoethanol, 298 K; NMR: 20 mM sodium phosphate pH 7.0, 200 mM NaCl, 5 mM DTT, 1 mM EDTA, 298 K", "conditions": "protein: recombinant; tags: untagged (His6-GST cleaved with TEV)"}, "HuR RRM3 [5]": {"biological_target": "T1, HuR RRM3", "assay": "NMR; changes comparable with U6; ITC: 50 mM sodium phosphate pH 7.0, 200 mM NaCl, 2 mM beta-mercaptoethanol, 298 K; NMR: 20 mM sodium phosphate pH 7.0, 200 mM NaCl, 5 mM DTT, 1 mM EDTA, 298 K", "conditions": "protein: recombinant; tags: untagged (His6-GST cleaved with TEV)"}, "HuR RRM3 [6]": {"biological_target": "T1, HuR RRM3", "assay": "NMR; 1:0.25 and 1:1.25; ITC: 50 mM sodium phosphate pH 7.0, 200 mM NaCl, 2 mM beta-mercaptoethanol, 298 K; NMR: 20 mM sodium phosphate pH 7.0, 200 mM NaCl, 5 mM DTT, 1 mM EDTA, 298 K", "conditions": "protein: recombinant; tags: untagged (His6-GST cleaved with TEV)"}, "HuR F279A": {"biological_target": "HuR F279A (human, UniProt Q15717 1-326, F279A)", "sequence (Q15717 whole entry F279A)": "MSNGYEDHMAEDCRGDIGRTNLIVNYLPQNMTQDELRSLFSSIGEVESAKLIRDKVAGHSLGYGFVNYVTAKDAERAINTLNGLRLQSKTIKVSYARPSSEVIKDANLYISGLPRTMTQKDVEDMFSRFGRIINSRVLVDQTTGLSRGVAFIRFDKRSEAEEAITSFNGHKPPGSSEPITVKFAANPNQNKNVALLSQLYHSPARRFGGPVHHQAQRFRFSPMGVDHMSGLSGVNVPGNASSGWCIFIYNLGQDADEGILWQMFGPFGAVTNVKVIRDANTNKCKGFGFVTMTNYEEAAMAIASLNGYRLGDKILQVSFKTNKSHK", "assay": "ITC; n=1.0; ITC: 50 mM sodium phosphate pH 7.0, 200 mM NaCl, 2 mM beta-mercaptoethanol, 298 K; NMR: 20 mM sodium phosphate pH 7.0, 200 mM NaCl, 5 mM DTT, 1 mM EDTA, 298 K", "conditions": "protein: recombinant; tags: untagged (tag cleaved)"}, "HuR F287A/F289A": {"biological_target": "HuR F287A/F289A (human, UniProt Q15717 1-326, F287A;F289A)", "sequence (Q15717 whole entry F287A/F289A)": "as the sequence (Q15717 whole entry F279A) above, with A279F, F287A, F289A counted along it", "assay": "ITC; n=0.7; ITC: 50 mM sodium phosphate pH 7.0, 200 mM NaCl, 2 mM beta-mercaptoethanol, 298 K; NMR: 20 mM sodium phosphate pH 7.0, 200 mM NaCl, 5 mM DTT, 1 mM EDTA, 298 K", "conditions": "protein: recombinant; tags: untagged (tag cleaved)"}, "HuR WT": {"biological_target": "HuR WT (human, UniProt Q15717 1-326)", "sequence (Q15717 whole entry)": "as the sequence (Q15717 whole entry F279A) above, with A279F counted along it", "assay": "ITC; n=0.7; ITC: 50 mM sodium phosphate pH 7.0, 200 mM NaCl, 2 mM beta-mercaptoethanol, 298 K; NMR: 20 mM sodium phosphate pH 7.0, 200 mM NaCl, 5 mM DTT, 1 mM EDTA, 298 K", "conditions": "protein: recombinant; tags: untagged (His6-MBP cleaved)"}, "HuR W261E": {"biological_target": "HuR W261E (human, UniProt Q15717 1-326, W261E)", "sequence (Q15717 whole entry W261E)": "as the sequence (Q15717 whole entry F279A) above, with W261E, A279F counted along it", "assay": "ITC; n=0.9; ITC: 50 mM sodium phosphate pH 7.0, 200 mM NaCl, 2 mM beta-mercaptoethanol, 298 K; NMR: 20 mM sodium phosphate pH 7.0, 200 mM NaCl, 5 mM DTT, 1 mM EDTA, 298 K", "conditions": "protein: recombinant; tags: untagged (tag cleaved)"}, "HuR GGS": {"biological_target": "HuR GGS (human, UniProt Q15717 1-185+=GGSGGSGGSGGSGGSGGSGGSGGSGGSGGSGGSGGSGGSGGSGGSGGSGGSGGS+240-326, internal_change)", "sequence (Q15717 other isoform, or with tags, fused parts or gaps)": "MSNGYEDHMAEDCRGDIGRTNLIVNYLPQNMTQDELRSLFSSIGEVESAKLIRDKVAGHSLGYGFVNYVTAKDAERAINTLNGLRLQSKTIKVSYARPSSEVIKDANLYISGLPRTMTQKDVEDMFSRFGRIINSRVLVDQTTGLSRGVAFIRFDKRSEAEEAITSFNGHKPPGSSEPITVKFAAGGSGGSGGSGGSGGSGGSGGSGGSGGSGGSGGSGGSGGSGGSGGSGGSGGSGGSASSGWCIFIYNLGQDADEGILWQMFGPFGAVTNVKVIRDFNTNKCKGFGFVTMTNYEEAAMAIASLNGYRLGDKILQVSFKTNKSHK", "assay": "ITC; n=0.9; ITC: 50 mM sodium phosphate pH 7.0, 200 mM NaCl, 2 mM beta-mercaptoethanol, 298 K; NMR: 20 mM sodium phosphate pH 7.0, 200 mM NaCl, 5 mM DTT, 1 mM EDTA, 298 K", "conditions": "protein: recombinant; tags: pETM11 His6, cleaved"}, "HuR F247A/Y249A": {"biological_target": "HuR F247A/Y249A (human, UniProt Q15717 1-326, F247A;Y249A)", "sequence (Q15717 whole entry F247A/Y249A)": "as the sequence (Q15717 whole entry F279A) above, with F247A, Y249A, A279F counted along it", "assay": "ITC; n=0.8; ITC: 50 mM sodium phosphate pH 7.0, 200 mM NaCl, 2 mM beta-mercaptoethanol, 298 K; NMR: 20 mM sodium phosphate pH 7.0, 200 mM NaCl, 5 mM DTT, 1 mM EDTA, 298 K", "conditions": "protein: recombinant; tags: untagged (tag cleaved)"}, "HuR RRM3 F279A": {"biological_target": "HuR RRM3 F279A (human, UniProt Q15717 243-326, F279A)", "sequence (Q15717 243-326 F279A)": "as the sequence (Q15717 243-326) above, with F37A counted along it", "assay": "ITC; n=0.6; ITC: 50 mM sodium phosphate pH 7.0, 200 mM NaCl, 2 mM beta-mercaptoethanol, 298 K; NMR: 20 mM sodium phosphate pH 7.0, 200 mM NaCl, 5 mM DTT, 1 mM EDTA, 298 K", "conditions": "protein: recombinant; tags: untagged (His6-GST cleaved)"}, "HuR RRM3 [7]": {"biological_target": "T1, HuR RRM3", "assay": "ITC; 400 uM RNA into 20 uM RRM3; n=0.6; ITC: 50 mM sodium phosphate pH 7.0, 200 mM NaCl, 2 mM beta-mercaptoethanol, 298 K; NMR: 20 mM sodium phosphate pH 7.0, 200 mM NaCl, 5 mM DTT, 1 mM EDTA, 298 K", "conditions": "protein: recombinant; tags: untagged (His6-GST cleaved with TEV)"}, "HuR RRM3 F247A/Y249A": {"biological_target": "HuR RRM3 F247A/Y249A (human, UniProt Q15717 243-326, F247A;Y249A)", "sequence (Q15717 243-326 F247A/Y249A)": "as the sequence (Q15717 243-326) above, with F5A, Y7A counted along it", "assay": "ITC; ITC: 50 mM sodium phosphate pH 7.0, 200 mM NaCl, 2 mM beta-mercaptoethanol, 298 K; NMR: 20 mM sodium phosphate pH 7.0, 200 mM NaCl, 5 mM DTT, 1 mM EDTA, 298 K", "conditions": "protein: recombinant; tags: untagged (His6-GST cleaved)"}}}
{"binder": "UUUUU (ssRNA)", "note": "[U5]", "values": [{"measurement": "Kd", "setting": "HuR RRM3 [1]", "value": 34, "unit": "µM"}]}
{"binder": "UUUAUU (ssRNA)", "note": "[AU6]", "values": [{"measurement": "Kd", "setting": "HuR RRM3 [2]", "value": "47 ± 3.6", "unit": "µM"}]}
{"binder": "UUUGUU (ssRNA)", "note": "[GU6]", "values": [{"measurement": "Kd", "setting": "HuR RRM3 [3]", "value": "100 ± 18.2", "unit": "µM"}]}
{"binder": "UAUUUA (ssRNA)", "note": "[AU6tnf]", "values": [{"measurement": "Kd", "setting": "HuR RRM3 [4]", "value": "156 ± 32.8", "unit": "µM"}]}
{"binder": "UUUUUUUUU (ssRNA)", "note": "[U9]", "values": [{"measurement": "binding result", "setting": "HuR RRM3 [5]", "value": "binds"}]}
{"binder": "GAGCAC (ssRNA)", "note": "[GC control]", "values": [{"measurement": "binding result", "setting": "HuR RRM3 [6]", "value": "no binding"}]}
{"binder": "AUUUUUAUUUUAUUUUU (ssRNA)", "note": "[AU17]", "values": [{"measurement": "Kd", "setting": "HuR F279A", "value": "0.0288 ± 0.0044", "unit": "µM"}, {"measurement": "Kd", "setting": "HuR F287A/F289A", "value": "0.194 ± 0.0215", "unit": "µM"}, {"measurement": "Kd", "setting": "HuR WT", "value": "0.04 ± 0.0082", "unit": "µM"}, {"measurement": "Kd", "setting": "HuR W261E", "value": "0.041 ± 0.0048", "unit": "µM"}, {"measurement": "Kd", "setting": "HuR GGS", "value": "0.0336 ± 0.0027", "unit": "µM"}, {"measurement": "Kd", "setting": "HuR F247A/Y249A", "value": "0.351 ± 0.0199", "unit": "µM"}]}
{"binder": "UUUUUU (ssRNA)", "note": "[U6]", "values": [{"measurement": "Kd", "setting": "HuR RRM3 F279A", "value": "44.6 ± 3.5", "unit": "µM"}, {"measurement": "Kd", "setting": "HuR RRM3 [7]", "value": "15.8 ± 1.5", "unit": "µM"}, {"measurement": "Kd", "setting": "HuR RRM3 [2]", "value": "19.3 ± 0.3", "unit": "µM"}, {"measurement": "binding result", "setting": "HuR RRM3 F247A/Y249A", "value": "no binding"}]}
